In US20230322950A1:
Values belong to the substance of their own block, whether it stands above or below them.

Assays:
[1] = target: VH3VL1-CD8ATD-CD137CSD-CD3zSSD fusion
[2] = target: VL1VH3-CD8ATD-CD137CSD-CD3zSSD fusion
[3] = target: VH1VL1-CD8ATD-CD137CSD-CD3zSSD fusion
[4] = target: VH2VL1-CD8ATD-CD137CSD-CD3zSSD fusion
[5] = target: VL1VH3-CD8ATD-CD137CSD-CD3zSSD fusion; remark: listed apart in the source
[6] = target: VH2VL1-CD8ATD-CD137CSD-CD3zSSD fusion; remark: listed apart in the source
[7] = target: VH3VL1-CD8ATD-CD137CSD-CD3zSSD fusion; remark: listed apart in the source
[8] = target: VL1VH3-CD8ATD-CD137CSD-CD3zSSD fusion; remark: listed apart in the source
[9] = target: VH1VL1-CD8ATD-CD137CSD-CD3zSSD fusion; remark: listed apart in the source
[10] = target: VH2VL1-CD8ATD-CD137CSD-CD3zSSD fusion; remark: listed apart in the source

Sequence of VL1VH3-CD8ATD-CD137CSD-CD3zSSD fusion (chain, as listed by the source): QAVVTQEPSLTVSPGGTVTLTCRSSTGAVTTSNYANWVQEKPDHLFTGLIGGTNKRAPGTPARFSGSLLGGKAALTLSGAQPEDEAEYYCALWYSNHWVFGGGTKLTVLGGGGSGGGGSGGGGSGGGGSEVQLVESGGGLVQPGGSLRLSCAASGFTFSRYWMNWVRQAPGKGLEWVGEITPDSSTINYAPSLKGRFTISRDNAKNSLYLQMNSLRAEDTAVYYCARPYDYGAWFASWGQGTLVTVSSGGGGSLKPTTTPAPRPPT
Sequence of VH2VL1-CD8ATD-CD137CSD-CD3zSSD fusion (chain, as listed by the source): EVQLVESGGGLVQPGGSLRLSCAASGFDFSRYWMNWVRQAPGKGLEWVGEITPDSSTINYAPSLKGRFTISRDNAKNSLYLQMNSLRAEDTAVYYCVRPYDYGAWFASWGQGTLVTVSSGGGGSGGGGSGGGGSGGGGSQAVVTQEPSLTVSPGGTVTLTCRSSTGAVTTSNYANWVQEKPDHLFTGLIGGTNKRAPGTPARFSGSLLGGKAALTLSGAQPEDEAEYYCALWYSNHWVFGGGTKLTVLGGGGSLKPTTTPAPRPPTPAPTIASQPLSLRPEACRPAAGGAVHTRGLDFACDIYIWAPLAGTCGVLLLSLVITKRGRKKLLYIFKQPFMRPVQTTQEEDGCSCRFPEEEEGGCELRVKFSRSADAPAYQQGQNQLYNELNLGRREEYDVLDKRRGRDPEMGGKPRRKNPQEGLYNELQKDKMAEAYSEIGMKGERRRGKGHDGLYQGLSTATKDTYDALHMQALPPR
Sequence of VH3VL1-CD8ATD-CD137CSD-CD3zSSD fusion (chain, as listed by the source): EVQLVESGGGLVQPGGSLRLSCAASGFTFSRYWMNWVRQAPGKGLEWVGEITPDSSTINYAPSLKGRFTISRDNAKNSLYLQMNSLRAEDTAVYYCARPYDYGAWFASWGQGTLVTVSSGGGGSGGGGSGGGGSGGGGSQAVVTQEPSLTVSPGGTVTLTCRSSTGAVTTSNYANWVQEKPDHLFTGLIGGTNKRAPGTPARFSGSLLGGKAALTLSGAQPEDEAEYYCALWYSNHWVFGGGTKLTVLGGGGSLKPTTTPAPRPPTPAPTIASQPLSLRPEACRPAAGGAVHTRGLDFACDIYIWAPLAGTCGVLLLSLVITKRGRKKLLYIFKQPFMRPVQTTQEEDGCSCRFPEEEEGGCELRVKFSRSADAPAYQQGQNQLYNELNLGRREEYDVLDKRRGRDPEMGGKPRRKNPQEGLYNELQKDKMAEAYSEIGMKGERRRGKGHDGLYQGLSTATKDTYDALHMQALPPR
Sequence of VH1VL1-CD8ATD-CD137CSD-CD3zSSD fusion (chain, as listed by the source): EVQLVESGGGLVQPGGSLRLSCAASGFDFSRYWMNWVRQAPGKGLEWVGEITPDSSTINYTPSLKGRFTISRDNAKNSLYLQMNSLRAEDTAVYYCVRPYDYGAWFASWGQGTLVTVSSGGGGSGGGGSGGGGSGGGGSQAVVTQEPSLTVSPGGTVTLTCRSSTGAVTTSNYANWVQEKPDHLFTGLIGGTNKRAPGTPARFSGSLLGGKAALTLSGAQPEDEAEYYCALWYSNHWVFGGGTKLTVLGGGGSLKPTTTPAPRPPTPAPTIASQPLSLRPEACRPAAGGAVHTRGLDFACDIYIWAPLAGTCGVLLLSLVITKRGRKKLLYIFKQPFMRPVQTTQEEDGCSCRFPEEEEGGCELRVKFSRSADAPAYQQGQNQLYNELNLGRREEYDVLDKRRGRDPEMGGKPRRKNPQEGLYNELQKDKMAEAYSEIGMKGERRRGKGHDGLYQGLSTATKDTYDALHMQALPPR

EC50 of Jurkat NFAT luciferase reporter activation (RLU/s), WSUDLCL2 target cells 5:1; drawn table, row 'VH3 x VL1' [1]: 7.57 pM | EC50 of Jurkat NFAT luciferase reporter activation (RLU/s), WSUDLCL2 target cells 5:1; drawn table, row 'VL1 x VH 3' [2]: 6.58 pM | EC50 of Jurkat NFAT luciferase reporter activation (RLU/s), WSUDLCL2 target cells 5:1; drawn table, row 'VH1 x VL1' [3]: 8.1 pM | EC50 of Jurkat NFAT luciferase reporter activation (RLU/s), WSUDLCL2 target cells 5:1; drawn table, row 'VH2 x VL1' [4]: 6.93 pM
Substance: anti-CD20 (GA101) P329G LALA IgG1 (antibody)

EC50 printed in the drawn table (row 'VL1 x VH 3') for the Jurkat NFAT reporter assay with WSUDLCL2 cells and untargeted DP47 P329G LALA; the curve stays near background (about 60 to 110 RLU/s) [5]: 7.42 nM | EC50 printed in the drawn table (row 'VH2 x VL1') for the Jurkat NFAT reporter assay with WSUDLCL2 cells and untargeted DP47 P329G LALA; the curve stays at background (about 60 to 90 RLU/s) [6]: 0.293 nM
Substance: DP47 P329G LALA (antibody)

EC50 of Jurkat NFAT luciferase reporter activation (RLU/s), WSUDLCL2 target cells 5:1; drawn table, row 'VH3 x VL1'; x axis 'GA101 D246A P329G [nM]' [7]: 0.00582 nM | EC50 of Jurkat NFAT luciferase reporter activation (RLU/s), WSUDLCL2 target cells 5:1; drawn table, row 'VL1 x VH 3'; x axis 'GA101 D246A P329G [nM]' [8]: 0.00619 nM | EC50 of Jurkat NFAT luciferase reporter activation (RLU/s), WSUDLCL2 target cells 5:1; drawn table, row 'VH1 x VL1'; x axis 'GA101 D246A P329G [nM]' [9]: 0.00814 nM | EC50 of Jurkat NFAT luciferase reporter activation (RLU/s), WSUDLCL2 target cells 5:1; drawn table, row 'VH2 x VL1'; x axis 'GA101 D246A P329G [nM]' [10]: 0.0104 nM
Substance: anti-CD20 (GA101) D246A P329G IgG1 (antibody)
